From paper PMC3438448, “Lis1 Acts as a “Clutch” between the ATPase and Microtubule-Binding Domains of the Dynein Motor” (Cell, 2012)

Molecular target: the molecule itself
Test: cross-linking; 0.5 μM protein ± 0.05% glutaraldehyde, 5 min, ambient temperature; 30 mM HEPES pH 7.2, 50 mM potassium acetate; SDS-PAGE; control pretreated with 4% LDS

B1: Lis1 (S. cerevisiae Pac1) (natural protein, UniProt P39946 1-494, looked up)
chain: MTNWQQQLPLTDTQKNELDKSVLRYLNWNYKQTVRHEHAQDYESVRHAIVTLSGFLLQESVDRQEFISNNDTSNESMVDIDELLLPKKWNSIVRLQKKIIELEQNTETLVSQIKDLNTQVSELAQFKPTTSNGTSAHNVLKWIPRNLPSCLINVESSVTSVKLHPNLPIVFVATDHGKLYAFDLFNYTIPLASLQSHTKAITSMDVLFTNYTNSSKKNYLVIVTASKDLQIHVFKWVSEECKFQQIRSLLGHEHIVSAVKIWQKNNDVHIASCSRDQTVKIWDFHNGWSLKTFQPHSQWVRSIDVLGDYIISGSHDTTLRLTHWPSGNGLSVGTGHEFPIEKVKFIHFIEDSPEIRFRTPSTDRYKNWGMQYCVSASRDRTIKIWEIPLPTLMAHRAPIPNPTDSNFRCVLTLKGHLSWVRDISIRGQYLFSCADDKSVRCWDLNTGQCLHVWEKLHTGFVNCLDLDVDFDSNVTPRQMMVTGGLDCKSNVFMR
notes: Lis1 ortholog Pac1 (PAC1), S. cerevisiae; also called dimeric Lis1; intact Lis1; source: S. cerevisiae, expressed from the genomic locus, purified (Ni-NTA, IgG sepharose, TEV cleavage)
- stoichiometry N: 2
